According to patent publication US20200231956:

Biological target: dipeptides with a proline at the second position

B1: aminopeptidase T from Thermus aquaticus, with a Cys added at the N-terminus and a 6xHis at the C-terminus (protein)
chain: MCDAFTENLNKLAELAIRVGLNLEEGQEIVATAPIEAVDFVRLLAEKAYENGASLFTVLYGDNLIARKRLALVPEAHLDRAPAWLYEGMAKAFHEGAARLAVSGNDPKALEGLPPERVGRAQQAQSRAYRPTLSAITEFVTNWTIVPFAHPGWAKAVFPGLPEEEAVQRLWQAIFQATRVDQEDPVAAWEAHNRVLHAKVAFLNEKRFHALHFQGPGTDLTVGLAEGHLWQGGATPTKKGRLCNPNLPTEEVFTAPHRERVEGVVRASRPLALSGQLVEGLWARFEGGVAVEVGAEKGEEVLKKLLDTDEGARRLGEVALVPADNPIAKTGLVFFDTLFDENAASHIAFGQAYAENLEGRPSGEEFRRRGGNESMVHVDWMIGSEEVDVDGLLEDGTRVPLMRRGRWVIHHHHHH
B1 was tested. Which “aminopeptidase assay, cleavage of the N-terminal amino acid” value did it give?
The value was “TaqAPT cleaves dipeptides even with a proline at the second position”.
